Measurements published in patent US6500934 (dated 2002).
Non-standard residues stand in square brackets, D forms with d. No end group written: not given here. Ahx = NCCCCCC(=O)O

Molecular target: bombesin receptor expressed in transfected Xenopus laevis melanophores (plasmid pJG3.6BR)
Experiment: cell-based or functional assay

- EC50 (t=30 min) of pigment dispersion in melanophores transfected with the bombesin receptor: 110 nM
B1: Bombesin monomer (K(20)-εAhx-GGG-QQRLGNQWAVGHLM) (peptide)
peptide: KKKKKKKKKKKKKKKKKKKK[Ahx]GGGQQRLGNQWAVGHLM-NH2
modifications: ends and bridges not checked
